Test results from patent US6512102.

Assays:
[1] = target: GSK3 (huGSK3myc), P49841
[2] = target: Axin
[3] = target: β-catenin
Sequence of β-catenin (P35222 2-781): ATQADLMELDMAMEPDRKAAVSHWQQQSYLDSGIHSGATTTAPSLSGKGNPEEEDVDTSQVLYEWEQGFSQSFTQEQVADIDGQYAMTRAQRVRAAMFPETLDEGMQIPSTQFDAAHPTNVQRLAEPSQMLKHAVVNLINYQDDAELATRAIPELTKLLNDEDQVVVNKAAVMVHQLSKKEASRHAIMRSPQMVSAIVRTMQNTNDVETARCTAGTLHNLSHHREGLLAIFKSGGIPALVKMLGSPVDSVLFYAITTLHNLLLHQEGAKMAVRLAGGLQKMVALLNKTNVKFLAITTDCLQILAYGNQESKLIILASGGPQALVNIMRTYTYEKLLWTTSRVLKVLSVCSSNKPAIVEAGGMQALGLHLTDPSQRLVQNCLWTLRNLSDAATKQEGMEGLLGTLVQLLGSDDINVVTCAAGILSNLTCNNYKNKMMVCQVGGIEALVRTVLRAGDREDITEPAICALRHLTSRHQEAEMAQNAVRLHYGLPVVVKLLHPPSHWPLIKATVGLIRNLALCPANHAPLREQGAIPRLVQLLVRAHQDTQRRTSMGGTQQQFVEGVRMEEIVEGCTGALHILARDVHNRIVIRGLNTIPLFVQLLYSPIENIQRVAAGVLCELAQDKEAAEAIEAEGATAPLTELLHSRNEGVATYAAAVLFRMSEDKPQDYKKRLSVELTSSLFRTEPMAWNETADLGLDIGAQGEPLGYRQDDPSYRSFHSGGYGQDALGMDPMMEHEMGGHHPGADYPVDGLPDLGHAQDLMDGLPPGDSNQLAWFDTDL

Sequence of GSK3 (huGSK3myc), P49841 (P49841 whole entry, looked up): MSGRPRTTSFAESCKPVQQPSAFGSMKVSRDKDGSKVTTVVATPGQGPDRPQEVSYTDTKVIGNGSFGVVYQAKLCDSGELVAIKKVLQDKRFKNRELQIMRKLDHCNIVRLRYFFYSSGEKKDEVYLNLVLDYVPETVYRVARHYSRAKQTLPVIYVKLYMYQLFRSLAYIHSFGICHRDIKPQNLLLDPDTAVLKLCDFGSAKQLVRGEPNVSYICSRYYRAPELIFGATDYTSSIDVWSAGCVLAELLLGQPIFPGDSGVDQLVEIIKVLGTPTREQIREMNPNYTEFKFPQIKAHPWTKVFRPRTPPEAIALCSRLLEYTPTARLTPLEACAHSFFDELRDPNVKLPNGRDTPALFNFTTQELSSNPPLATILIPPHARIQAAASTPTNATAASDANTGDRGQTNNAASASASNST

B1: mouse casein kinase I epsilon, HA-tagged (CKIε-HA) (protein)
chain: MELRVGNKYRLGRKIGSGSFGDIYLGANIASGEEVAIKLECVKTKHPQLHIESKFYKMMQGGVGIPSIKWCGAEGDYNVMVMELLGPSLEDLFNFCSRKFSLKTVLLLADQMISRIEYIHSKNFIHRDVKPDNFLMGLGKKGNLVYIIDFGLAKKYRDARTHQHIPYRENKNLTGTARYASINTHLGIEQSRRDDLESLGYVLMYFNLGSLPWQGLKAATKRQKYERISEKKMSTPIEVLCKGYPSEFSTYLNFCRSLRFDDKPDYSYLRQLFRNLFHRQGFSYDYVFDWNMLKFGAARNPEDVDRERREHEREERMGQLRGSATRALPPGPPTGATANRLRSAAEPVASTPASRIQQTGNTSPRAISRADRERKVSMRLHRGAPANVSSSDLTGRQEVSRLAASQTSVPFDHLGK
For B1, the “in vitro kinase assay (phosphorylation of GSK3)” value [1] was “either purified CKIε protein or immunoprecipitated CKIε phosphorylated purified GSK3 protein as well as immunoprecipitated GSK3 protein”, the phosphorylation [2] was “CKIε phosphorylates Axin” and the in vitro phosphorylation [3] was “CKIε phosphorylates β-catenin in vitro”.

B2: C-terminally truncated CKIε (protein)
chain: MELRVGNKYRLGRKIGSGSFGDIYLGANIASGEEVAIKLECVKTKHPQLHIESKFYKMMQGGVGIPSIKWCGAEGDYNVMVMELLGPSLEDLFNFCSRKFSLKTVLLLADQMISRIEYIHSKNFIHRDVKPDNFLMGLGKKGNLVYIIDFGLAKKYRDARTHQHIPYRENKNLTGTARYASINTHLGIEQSRRDDLESLGYVLMYFNLGSLPWQGLKAATKRQKYERISEKKMSTPIEVLCKGYPSEFSTYLNFCRSLRFDDKPDYSYLRQLFRNLFHRQGFSYDYVFDWNMLKFGAARNPED
For B2, the “in vitro kinase assay (phosphorylation of GSK3)” value [1] was “A truncated mutant, CKIε, where the C-terminus was deleted had intact kinase activity. It was immunoprecipitated using anti-HA antibody and mixed with Immunoprecipitated GSK3”.
